Results on 8 substances are retold here after paper PMC4769027.

As a reminder, the Kd is the concentration at which binding is half-saturated.

Experiment [1] has as its target GASDALIE Fc (G236A/S239D/A330L/I332E IgG1 Fc), expressed as an Fc fragment (human). Put plainly: SPR. Background: Surface plasmon resonance follows binding to a sensor surface in real time, without labels.
Experiment [2] concerns the target SDALIE Fc (S239D/A330L/I332E IgG1 Fc) (human). The experiment in a line: SPR.
The target of experiment [3] is FcγRIIb ectodomain (human) (UniProt P31994). Put plainly: SPR.
The target in experiment [4] is FcγRIIa H131 variant ectodomain (human) (UniProt P12318). Put plainly: SPR.
Experiment [5] addresses FcγRIIIa F158 variant ectodomain (as used in SPR) (human) (UniProt P08637). The experiment in a line: SPR.
Experiment [6] concerns the target FcγRIIa H131 (Homo sapiens) (UniProt P12318). Put plainly: SPR. The note with it: cited from earlier work.
Another experiment concerns the target FcγRIIb (Homo sapiens) (UniProt P31994). Put plainly: SPR. Conditions: cited from earlier work.
Experiment [7] concerns the target FcγRIIa R131 (Homo sapiens) (UniProt P12318). The experiment in a line: SPR. Conditions: cited from earlier work.
Experiment [8] has as its target FcγRIIIa V158 (Homo sapiens) (UniProt P08637). The experiment in a line: SPR. Conditions: cited from earlier work.
Experiment [9] concerns the target FcγRIIIa F158 (Homo sapiens) (UniProt P08637). Put plainly: SPR. Conditions: cited from earlier work.
In experiment [10] the target is FcγRIIIa V158 ECD (Homo sapiens) (UniProt P08637). The experiment in a line: SPR. Conditions: cited from earlier work.
Experiment [11] addresses FcγRIIa H131 ECD (Homo sapiens) (UniProt P12318). Put plainly: SPR. The note with it: cited from earlier work.
The target in experiment [12] is FcγRIIb ECD (Homo sapiens) (UniProt P31994). Put plainly: SPR. The note with it: cited from earlier work.
Experiment [13] deals with FcγRIIIa F158 ECD (Homo sapiens) (UniProt P08637). The experiment in a line: SPR. The note with it: cited from earlier work.
Experiment [14] has as its target FcγRIIa R131 ECD (Homo sapiens) (UniProt P12318). The experiment in a line: SPR. The note with it: cited from earlier work.
In experiment [15] the target is FcγRIIIa V158 ECD (Homo sapiens) (UniProt P08637). The experiment in a line: Competition. Conditions: cited from earlier work.

With “FcγRIIIa F158 variant ectodomain (as used in SPR) (from UniProt P08637 17-218) (receptor)”, the figures for the fold improved affinity compared with wtFc in [1] and in [2] were 431 fold and 318 fold, respectively.
Regarding “FcγRIIa H131 variant ectodomain (from UniProt P12318 34-211) (receptor)”, in [1], the fold improved affinity compared with wtFc came out at 17 fold and the fold tighter binding than SDALIE Fc was determined as 7 fold. The substance further had a fold improved affinity compared with wtFc in experiment [2] of 2 fold.
“FcγRIIb ectodomain (from UniProt P31994 43-217) (receptor)” came in with a fold improved affinity compared with wtFc in experiment [1] of 6 fold.
For the substance “GASDALIE Fc (G236A/S239D/A330L/I332E IgG1 Fc), expressed as an Fc fragment (domain or fragment)”, the Kd stood at 3.88 µM in [3], 1580 nM in experiment [4] and 213 nM in experiment [5].
As for IgG1 Fc Fc (from UniProt P01857), the Kd in experiment [6] was 1380 nM; with FcγRIIb (Homo sapiens), 2520 nM; in experiment [7], 1550 nM; in [8] it was 432 nM; in experiment [9] it was 2950 nM.
For the substance “SDALIE Fc (S239D/A330L/I332E IgG1 Fc) (domain or fragment)”, the dissociation constant Kd in experiment [3] was found to be 2.19 µM; in [4], 1490 nM; in experiment [5], 201 nM.
“wild-type IgG1 Fc (from UniProt P01857 108-328) (domain or fragment)” yielded an equilibrium dissociation constant (Kd) in experiment [5] of 4450 nM.
For the substance wtFc (IgG1) Fc (from UniProt P01857), the dissociation constant Kd was 432 nM in [10]; 1380 nM in experiment [11]; 2520 nM in experiment [12]; 2950 nM in experiment [13]; 1550 nM in experiment [14]; 252 nM in experiment [15].
